Data set [1] deals with T1, IE-1 (IE1-His) (Bombyx mori nucleopolyhedrovirus (BmNPV), UniProt P33245 1-587).
T1 sequence: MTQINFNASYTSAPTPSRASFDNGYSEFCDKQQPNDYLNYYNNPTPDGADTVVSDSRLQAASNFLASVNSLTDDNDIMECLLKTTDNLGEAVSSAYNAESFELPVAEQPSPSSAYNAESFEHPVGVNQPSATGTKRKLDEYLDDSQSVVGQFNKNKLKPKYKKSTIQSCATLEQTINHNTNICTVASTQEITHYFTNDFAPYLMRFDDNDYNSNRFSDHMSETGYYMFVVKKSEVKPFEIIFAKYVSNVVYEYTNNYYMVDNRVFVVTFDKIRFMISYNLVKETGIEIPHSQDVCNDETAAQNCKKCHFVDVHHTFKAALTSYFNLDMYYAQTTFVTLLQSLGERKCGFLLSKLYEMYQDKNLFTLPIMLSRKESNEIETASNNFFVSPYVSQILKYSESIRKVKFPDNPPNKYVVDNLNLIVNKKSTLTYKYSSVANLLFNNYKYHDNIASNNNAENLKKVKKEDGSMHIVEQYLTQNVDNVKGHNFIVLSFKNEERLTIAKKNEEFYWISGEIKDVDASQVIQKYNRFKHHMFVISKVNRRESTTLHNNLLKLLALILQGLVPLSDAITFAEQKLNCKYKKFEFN
In words: EMSA. The note with it: protein: recombinant; tags: His (pCold-I); chain copies: 2; label: 5' biotin; blunt. (Mobility shift assays separate free from complexed probe on a gel.)

Data set [2] has as its target T1, IE-1 (IE1-His). In words: EMSA; probe 1, 2, 6 pmol/L; IE-1 0.8 ug/L (so in the source). The note with it: protein: recombinant; tags: His (pCold-I); chain copies: 2; label: 5' biotin; blunt.

B1: 39K probe 2 (-386 to -431) (dsDNA)
DNA 1: GACTATCGTATAATATTAAAACCGCGACGCTTCAATTGCGAAATAA
DNA 2: TTATTTCGCAATTGAAGCGTCGCGGTTTTAATATTATACGATAGTC
Turning to B1, in the data set with IE-1 (IE1-His) [1], the binding result was “no binding”.

B2: 39K probe 4 (+2 to +47) (dsDNA)
DNA 1: AGTAATTACCGACAAATGTTCTAAGCGTAAGGTGTGTCTTCATCAC
DNA 2: GTGATGAAGACACACCTTACGCTTAGAACATTTGTCGGTAATTACT
Turning to B2, the binding result in the data set with IE-1 (IE1-His) [1] was “no binding”.

B3: 39K probe 1 (-486 to -532) (dsDNA)
DNA 1: AGTATTTGATATACGTAGGCGTCGTGCGCGGCAACTTGATTGACGTG
DNA 2: CACGTCAATCAAGTTGCCGCGCACGACGCCTACGTATATCAAATACT
Regarding B3, the binding result with IE-1 (IE1-His) [1] is “no binding”.

B4: 39K probe 3 (-310 to -355) (dsDNA)
DNA 1: AATATTTTAATTATATGAACGACAAACAATTGATCACGTACGATTA
DNA 2: TAATCGTACGTGATCAATTGTTTGTCGTTCATATAATTAAAATATT
In the case of B4, the binding result with IE-1 (IE1-His) [2] is “binds”.
